Values quoted from earlier work in publication PMC3100173.

Molecular target: OmpF (Escherichia coli) (UniProt P02931)
Sequence of UniProt P02931 (P02931 23-362): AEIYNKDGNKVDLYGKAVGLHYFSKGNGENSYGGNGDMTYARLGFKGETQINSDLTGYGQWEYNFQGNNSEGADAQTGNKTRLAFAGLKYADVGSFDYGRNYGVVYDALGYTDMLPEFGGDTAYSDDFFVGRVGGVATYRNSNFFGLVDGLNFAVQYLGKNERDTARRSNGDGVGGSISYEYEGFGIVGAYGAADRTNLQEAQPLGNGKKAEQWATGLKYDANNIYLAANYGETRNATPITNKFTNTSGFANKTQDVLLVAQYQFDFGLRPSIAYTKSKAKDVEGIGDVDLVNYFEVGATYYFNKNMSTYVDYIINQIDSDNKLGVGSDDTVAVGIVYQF

In the case of Colicin N (from UniProt P08083), the Kd is listed as 200 µM.
